± gives the uncertainty stated by the source.
Test: self-splicing fitness, log relative to wild type (ln ratio); higher = more splicing; Tetrahymena group I intron in knt gene, E. coli kanamycin selection, DiMSum; sequences stand for … in CUCUCU…GGAGGGAAAAGUUAUCAGGCAUGCACCUGGUAGCUAGUCUUUAAACCAAUAGAUUGCAUCGGUUUAAAAGGCAAGACCGUCAAAUUGCGGGAAAGGGGUCAACAGCCGUUCAGUACCAAGUCUCAGGGGAAACUUUGAGAUGGCCUUGCAAAGGGUAUGGUAAUAAGCUGACGGACAUGGUCCUAACCACGCAGCCAAGUCCUAAGUCAACAGAUCUUCUGUUGAUAUGGAUGCAGUUCACAGACUAAAUGUCGGUCGGGGAAGAUGUAUUCUUCUCAUAAGAUAUAGUCGGACCUCUCCUUAAUGGGAGCUAGCGGAUGAAGUGAUGCAACACUGGAGCCGCUGGGAACUAAUUUGUAUGCGAAAGUAUAUUGAUUAGUUUUGGAGUACUCGUGGUCG
Summary of the method: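 Fitness was computed with DiMSum as the error-weighted combination of replicate fold changes, kanamycin versus none, each normalised to wild type. The library randomised all eight intron nucleotides of the P1ex region, with the intron placed in the knt kanamycin-resistance gene on pET-22b(+) in E. coli BL21(DE3). Six replicate transformations were grown overnight at 37°C or 30°C on LB agar with or without 25 μg/mL kanamycin, plus 100 μg/mL carbenicillin, 50 μM IPTG and 0.2% rhamnose. Pooled colonies were amplicon-sequenced on an Illumina HiSeq 2500.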

| Sequence | self-splicing fitness (ln) (30 °C) | self-splicing fitness (ln) (37 °C) |
| --- | --- | --- |
| UCUUAGCAAUAUUACGGGGA | -1.1 ± 0.15 | -1 ± 0.16 |
| CCACAGCAAUAUUACGCACG | -0.551 ± 0.063 | -0.626 ± 0.093 |
| GCAAAGCAAUAUUACGUAGU | -2.09 ± 0.11 | -1.14 ± 0.15 |
| UCGUAGCAAUAUUACGCAAG | -3.91 ± 0.35 | -2.12 ± 0.27 |
| UGAGAGCAAUAUUACGCGAU | -3.4 ± 0.33 | -2.24 ± 0.39 |
| AAGGAGCAAUAUUACGUGUU | -3.55 ± 0.14 | -3.5 ± 0.24 |
| UACAAGCAAUAUUACGUGGG | -3.82 ± 0.21 | -3.3 ± 0.24 |
| AUUUAGCAAUAUUACGUCGA | -2.64 ± 0.29 | -0.501 ± 0.19 |
| UUAGAGCAAUAUUACGCUCG | -1.98 ± 0.23 |  |
| AAAUAGCAAUAUUACGCAUU | -2.89 ± 0.14 | -1.52 ± 0.12 |
| CCCGAGCAAUAUUACGAUCG | -3.58 ± 0.32 | -2.71 ± 0.41 |
| CUAGAGCAAUAUUACGCAUA | -2.97 ± 0.27 | -2.93 ± 0.4 |
| ACAGAGCAAUAUUACGCUGU | -3.87 ± 0.42 | -2.69 ± 0.29 |
| CACAAGCAAUAUUACGCAAC | -3.27 ± 0.26 | -2.27 ± 0.32 |
| GCUGAGCAAUAUUACGUGUU | -3.4 ± 0.2 | -2.37 ± 0.21 |
| AGCUAGCAAUAUUACGAUGG | -3.87 ± 0.27 | -2.05 ± 0.28 |
| GAGAAGCAAUAUUACGGUAG | -3.75 ± 0.29 | -2.68 ± 0.24 |
| CAGCAGCAAUAUUACGUUGC | -2.61 ± 0.27 | -2.11 ± 0.2 |
| GUCAAGCAAUAUUACGAAUA | -1.85 ± 0.16 | -1.42 ± 0.14 |
| GACCAGCAAUAUUACGAGGA | -1.04 ± 0.12 | -0.408 ± 0.11 |
| GUCAAGCAAUAUUACGUGCG | -2.29 ± 0.1 | -0.638 ± 0.1 |

| Sequence | self-splicing fitness (ln) (30 °C) | self-splicing fitness (ln) (37 °C) |
| --- | --- | --- |
| GCUGAGCAAUAUUACGAGAU | -3.06 ± 0.34 | -2.09 ± 0.31 |
| AGAUAGCAAUAUUACGGGCG | -1.16 ± 0.14 | 0.433 ± 0.15 |
| CCCAAGCAAUAUUACGCUAU | -3.85 ± 0.29 | -3.13 ± 0.31 |
| CAUGAGCAAUAUUACGCGGC | -2.22 ± 0.43 | -2.58 ± 0.29 |
| ACUAAGCAAUAUUACGGAGG | -2.52 ± 0.11 | -1.16 ± 0.13 |
| GGUUAGCAAUAUUACGUCCG | -0.773 ± 0.11 | -0.617 ± 0.2 |
| GACAAGCAAUAUUACGCGUA | -1.12 ± 0.072 | -0.683 ± 0.078 |
| AGGUAGCAAUAUUACGACCG | -0.101 ± 0.02 | 0.197 ± 0.039 |
| AAAGAGCAAUAUUACGGUUU | -2.16 ± 0.11 | -1.06 ± 0.12 |
| UGUUAGCAAUAUUACGAGGC | -3.73 ± 0.43 | -2.67 ± 0.38 |
| GUCGAGCAAUAUUACGCGAC | -2.57 ± 0.2 | -2.12 ± 0.29 |
| UGAUAGCAAUAUUACGUGCU | -1.84 ± 0.094 | -1.59 ± 0.14 |
| CAUAAGCAAUAUUACGGAGC | -3.94 ± 0.29 | -3.35 ± 0.22 |
| UAGCAGCAAUAUUACGUGUU | -3.4 ± 0.1 | -2.86 ± 0.15 |
| GUUCAGCAAUAUUACGGACG | -2.15 ± 0.11 | -0.428 ± 0.11 |
| CUUAAGCAAUAUUACGGAAU | -3.96 ± 0.31 | -2.29 ± 0.31 |
| AUGAAGCAAUAUUACGGAUG | -0.705 ± 0.063 | 0.152 ± 0.076 |
| GGCCAGCAAUAUUACGUGGA | -4.07 ± 0.25 | -2.49 ± 0.17 |
| CUAAAGCAAUAUUACGGCGG | -0.171 ± 0.064 | 0.0633 ± 0.081 |
| CCAAAGCAAUAUUACGUUUG | -2.93 ± 0.089 | -1.43 ± 0.086 |
| GGCUAGCAAUAUUACGGCGU | -0.171 ± 0.086 | -0.201 ± 0.094 |

Reference: the supplement of paper PMC7877785
